Substitutions are numbered along the chain they refer to.
B1: TCR 28 (codon-optimized, cysteine-modified) (TCR, V domains shown)
V domain 1: RKEVEQDPGPFNVPEGATVAFNCTYSNSASQSFFWYRQDCRKEPKLLMSVYSSGNEDGRFTAQLNRASQYISLLIRDSKLSDSATYLCVVRGGGTSYGKLTFGQGTILTVHP
V domain 2: DVKVTQSSRYLVKRTGEKVFLECVQDMDHENMFWYRQDPGLGLRLIYFSYDVKMKEKGDIPEGYSVSREKKERFSLILESASTNQTSMYLCASSLWGRSSGNTIYFGEGSWLTVVE
B2: TCR 30 (codon-optimized, cysteine-modified) (TCR, V domains shown)
V domain 1: DAKTTQPPSMDCAEGRAANLPCNHSTISGNEYVYWYRQIHSQGPQYIIHGLKNNETNEMASLIITEDRKSSTLILPHATLRDTAVYYCIVRGTSVLQGNEKLTFGTGTRLTIIP
V domain 2: EPEVTQTPSHQVTQMGQEVILRCVPISNHLYFYWYRQILGQKVEFLVSFYNNEISEKSEIFDDQFSVERPDGSNFTLKIRSTKLEDSAMYFCASSRQPSSGNTIYFGEGSWLTVVE
B3: TCR 21 (codon-optimized, cysteine-modified) (TCR, V domains shown)
V domain 1: AQKITQTQPGMFVQEKEAVTLDCTYDTSDQSYGLFWYKQPSSGEMIFLIYQGSYDEQNATEGRYSLNFQKARKSANLVISASQLGDSAMYFCAMREGRVTGGGNKLTFGTGTQLKVEL
V domain 2: NAGVTQTPKFQVLKTGQSMTLQCAQDMNHNSMYWYRQDPGMGLRLIYYSASEGTTDKGEVPNGYNVSRLNKREFSLRLESAAPSQTSVYFCASRPWGNQNTEAFFGQGTRLTVVE
B4: TCR 20 (codon-optimized, cysteine-modified) (TCR, V domains shown)
V domain 1: AQKVTQAQTEISVVEKEDVTLDCVYETRDTTYYLFWYKQPPSGELVFLIRRNSFDEQNEISGRYSWNFQKSTSSFNFTITASQVVDSAVYFCALWTGANNLFFGTGTRLTVIP
V domain 2: GAVVSQHPSRVICKSGTSVKIECRSLDFQATTMFWYRQFPKQSLMLMATSNEGSKATYEQGVEKDKFLINHASLTLSTLTVTSAHPEDSSFYICSASSLARRSYEQYFGPGTRLTVTE
B5: TCR 29 (codon-optimized, cysteine-modified) (TCR, V domains shown)
V domain 1: AQKITQTQPGMFVQEKEAVTLDCTYDTSDQSYGLFWYKQPSSGEMIFLIYQGSYDEQNATEGRYSLNFQKARKSANLVISASQLGDSAMYFCAMRLNTGTASKLTFGTGTRLQVTL
V domain 2: DGGITQSPKYLFRKEGQNVTLSCEQNLNHDAMYWYRQDPGQGLRLIYYSQIVNDFQKGDIAEGYSVSREKKESFPLTVTSAQKNPTAFYLCASSPWGRATNEQFFGPGTRLTVLE
B6: TCR 15 (codon-optimized, cysteine-modified) (TCR, V domains shown)
V domain 1: AQKITQTQPGMFVQEKEAVTLDCTYDTSDQSYGLFWYKQPSSGEMIFLIYQGSYDEQNATEGRYSLNFQKARKSANLVISASQLGDSAMYFCAMKPGGYNKLIFGAGTRLAVHP
V domain 2: DAGVIQSPRHEVTEMGQEVTLRCKPISGHNSLFWYRQTMMRGLELLIYFNNNVPIDDSGMPEDRFSAKMPNASFSTLKIQPSEPRDSAVYFCASSLVGRSRTEQYFGPGTRLTVTE
B7: TCR 26 (codon-optimized, cysteine-modified) (TCR, V domains shown)
V domain 1: B6 V domain 1 with K95R, P96D, G97A, G98R, Y99N, K101D, L102M, I103R, A111T, H113K
V domain 2: NAGVTQTPKFRVLKTGQSMTLLCAQDMNHEYMYWYRQDPGMGLRLIHYSVGEGTTAKGEVPDGYNVSRLKKQNFLLGLESAAPSQTSVYFCASSYYASGRNYEQYFGPGTRLTVTE
B8: TCR 17 (codon-optimized, cysteine-modified) (TCR, V domains shown)
V domain 1: AQKITQTQPGMFVQEKEAVTLDCTYDTSDPSYGLFWYKQPSSGEMIFLIYQGSYDQQNATEGRYSLNFQKARKSANLVISASQLGDSAMYFCAMREGRGDKIIFGKGTRLHILP
V domain 2: DVKVTQSSRYLVKRTGEKVFLECVQDMDHENMFWYRQDPGLGLRLIYFSYDVKMKEKGDIPEGYSVSREKKERFSLILESASTNQTSMYLCASSLWGRSNQPQHFGDGTRLSILE
B9: TCR 18 (codon-optimized, cysteine-modified) (TCR, V domains shown)
V domain 1: KQEVTQIPAALSVPEGENLVLNCSFTDSAIYNLQWFRQDPGKGLTSLLLIQSSQREQTSGRLNASLDKSSGRSTLYIAASQPGDSATYLCAEGNAGGTSYGKLTFGQGTILTVHP
V domain 2: B8 V domain 2 with L95F, Q101S, Q103L, D107N, S112T, I113V, L114T
B10: TCR 19 (codon-optimized, cysteine-modified) (TCR, V domains shown)
V domain 1: B5 V domain 1 with L96E
V domain 2: B8 V domain 2 with L95S, R98Q, N100T, Q101G, P102E, H104Y, D107P, S112T, I113V, L114T
B11: TCR 23 (codon-optimized, cysteine-modified) (TCR, V domains shown)
V domain 1: AQKITQTQPGMFVQEKEAVTLDCTYDTSDQSYGLFWYKQPSSGEMIFLIYQGSYDEQNATEGRYSLNFQKARKSANLVISASQLGDSAMYFCAMSPPGGSARQLTFGSGTQLTVLP
V domain 2: B8 V domain 2 with L95P, R98Q
B12: TCR 16 (codon-optimized, cysteine-modified) (TCR, V domains shown)
V domain 1: KQEVTQIPAALSVPEGENLVLNCSFTDSAIYNLQWFRQDPGKGLTSLLLIQSSQREQTSGRLNASLDKSSGRSTLYIAASQPGDSATYLCAVRPANNNDMRFGAGTRLTVKP
V domain 2: B8 V domain 2
B13: TCR 25 (codon-optimized, cysteine-modified) (TCR, V domains shown)
V domain 1: B3 V domain 1 with R98S, V99L
V domain 2: B8 V domain 2 with R98Q
B14: TCR 32 (codon-optimized, cysteine-modified) (TCR, V domains shown)
V domain 1: TQLLEQSPQFLSIQEGENLTVYCNSSSVFSSLQWYRQEPGEGPVLLVTVVTGGEVKKLKRLTFQFGDARKDSSLHITAAQPGDTGLYLCAGGSNYKLTFGKGTLLTVNP
V domain 2: DSGVTQTPKHLITATGQRVTLRCSPRSGDLSVYWYQQSLDQGLQFLIQYYNGEERAKGNILERFSAQQFPDLHSELNLSSLELGDSALYFCASSVGGDHSDEQFFGPGTRLTVLE
B15: modified version of TCR 13 (TCR)
TCR alpha: AQSVTQLDSHVSVSEGTPVLLRCNYSSSYSPSLFWYVQHPNKGLQLLLKYTSAATLVKGINGFEAEFKKSETSFHLTKPSAHMSDAAEYFCVVRGGKLIFGQGTELSVKPNIQNPDPAVYQLRDSKSSDKSVCLFTDFDSQTNVSQSKDSDVYITDKCVLDMRSMDFKSNSAVAWSNKSDFACANAFNNSIIPEDTFFPSPESSCDVKLVEKSFETDTNLNFQNLSVIGFRILLLKVAGFNLLMTLRLWSS
TCR beta: GAGVSQSPRYKVAKRGQDVALRCDPISGHVSLFWYQQALGQGPEFLTYFQNEAQLDKSGLPSDRFFAERPEGSVSTLKIQRTQQEDSAVYLCASSPTGTERELFFGEGSRLTVLEDLKNVFPPEVAVFEPSEAEISHTQKATLVCLATGFYPDHVELSWWVNGKEVHSGVCTDPQPLKEQPALNDSRYCLSSRLRVSATFWQNPRNHFRCQVQFYGLSENDEWTQDRAKPVTQIVSAEAWGRADCGFTSESYQQGVLSATILYEILLGKATLYAVLVSALVLMAMVKRKDSRG
B16: TCR 22 (codon-optimized, cysteine-modified) (TCR, V domains shown)
V domain 1: GQNIDQPTEMTATEGAIVQINCTYQTSGFNGLFWYQQHAGEAPTFLSYNVLDGLEEKGRFSSFLSRSKGYSYLLLKELQMKDSASYLCAVRARMDSNYQLIWGAGTKLIIKP
V domain 2: DAGVTQSPTHLIKTRGQHVTLRCSPISGHKSVSWYQQVLGQGPQFIFQYYEKEERGRGNFPDRFSARQFPNYSSELNVNALLLGDSALYLCASSRTENYGYTFGSGTRLTVVE
B17: modified version of TCR 14 (TCR)
TCR alpha: ILNVEQSPQSLHVQEGDSTNFTCSFPSSNFYALHWYRWETAKSPEALFVMTLNGDEKKKGRISATLNTKEGYSYLYIKGSQPEDSATYLCASQTGANNLFFGTGTRLTVIPYIQNPDPAVYQLRDSKSSDKSVCLFTDFDSQTNVSQSKDSDVYITDKCVLDMRSMDFKSNSAVAWSNKSDFACANAFNNSIIPEDTFFPSPESSCDVKLVEKSFETDTNLNFQNLSVIGFRILLLKVAGFNLLMTLRLWSS
TCR beta: DVKVTQSSRYLVKRTGEKVFLECVQDMDHENMFWYRQDPGLGLRLIYFSYDVKMKEKGDIPEGYSVSREKKERFSLILESASTNQTSMYLCASTFWGQRRTEAFFGQGTRLTVVEDLNKVFPPEVAVFEPSEAEISHTQKATLVCLATGFFPDHVELSWWVNGKEVHSGVCTDPQPLKEQPALNDSRYCLSSRLRVSATFWQNPRNHFRCQVQFYGLSENDEWTQDRAKPVTQIVSAEAWGRADCGFTSVSYQQGVLSATILYEILLGKATLYAVLVSALVLMAMVKRKDF

Biological target: T1, HLA-A2/E6(29-38) tetramer (human; HPV 16)
T1 construct: also called E6(29-38) peptide-MHC tetramer; E6 tet
Test: flow cytometry, tetramer + anti-CD8; transfected mix of CD8- and CD8+ Jurkat-derived cells;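 for % cells E6 tet+/CD8+ quadrant: CD4+ and CD4+/CD8+ cell mixtures transiently given TCR plasmids, analysed 48 h post-transfection by flow cytometry with E6(29-38)–HLA-A*02:01 tetramer plus anti-CD8 antibody co-stain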;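 for % cells E6 tet+/CD8- quadrant: CD4+ and CD4+/CD8+ cell mixtures transiently given TCR plasmids, analysed 48 h post-transfection by flow cytometry with E6(29-38)–HLA-A*02:01 tetramer plus anti-CD8 antibody co-stain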;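 for % cells E7 tet+/CD8+ quadrant: cells transiently transfected with TCR-encoding plasmids, analysed 48 h afterwards by co-staining with HLA-A*02:01 peptide tetramer and anti-CD8 antibody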;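 for % cells E7 tet+/CD8- quadrant: cells transiently transfected with TCR-encoding plasmids, analysed 48 h afterwards by co-staining with HLA-A*02:01 peptide tetramer and anti-CD8 antibody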
Experimental: (§1) For transfection, the CD4+ and CD4+/CD8+ cell mixtures were transiently transfected with TCR-encoding plasmids and 48 hours after transfection, cells were assessed by flow cytometry for (1) binding of the target peptide in the context of an MHC molecule (HLA:A02:01) by staining with an E6(29-38) peptide- or an E7(11-19) peptide-MHC tetramer reagent, and/or (2) CD8+ independent binding of the target by co-staining the tetramer-labeled cells with an anti-CD8 antibody.

Row | Binder | % cells E6 tet+/CD8+ quadrant [%] | % cells E6 tet+/CD8- quadrant [%]
1 | B1 | 13.1 | 0.15
2 | B2 | 31 | 0.74
3 | B3 | 28.8 | 32.7
4 | B4 | 38.2 | 34.1
5 | B5 | 35.6 | 44.5
6 | B6 | 21.4 | 40.2
7 | B7 | 42.3 | 47.4
8 | B8 | 36.2 | 21.3
9 | B9 | 23.3 | 3.61
10 | B10 | 35.5 | 20.8
11 | B11 | 52.5 | 22.5
12 | B12 | 35.6 | 28.2
13 | B13 | 34 | 14.7

Biological target: T2, HLA-A2/E7(11-19) tetramer (human; HPV 16)
T2 construct: also called E7(11-19) peptide-MHC tetramer; E7 tet
Test: as above
Experimental: as §1

Row | Binder | % cells E7 tet+/CD8+ quadrant [%] | % cells E7 tet+/CD8- quadrant [%]
14 | B14 | 25.3 | 33.5

Biological target: T1, HLA-A2/E6(29-38) tetramer
Test: flow cytometry, tetramer + anti-CD8; transfected Jurkat-derived cells, CD8+ cells
Experimental: as §1

Row | Binder | % cells E6 tet+/CD8+ quadrant [%] | % cells E6 tet+/CD8- quadrant [%]
15 | B15 | 38.6 | 0.064
16 | B16 | 51.2 | 0.14
17 | B17 | 38.4 | 0.04
18 | B3 | 51.6 | 0.22
19 | B8 | 34.7 | 0.17
20 | B9 | 50.4 | 0.045
21 | B11 | 43.6 | 0.18

Reference: patent publication US20210284709A1 (JUNO THERAPEUTICS, published 2021)
